{
  "source": "patent US20180057581A1",
  "about": "(MorphoSys, published 2018)",
  "assay_in_all_cases": "MSD specificity profiling, coated protein",
  "key": {"[1]": {"target": "Lysozyme (chicken) (chicken, UniProt P00698 19-147)", "sequence (P00698 19-147)": "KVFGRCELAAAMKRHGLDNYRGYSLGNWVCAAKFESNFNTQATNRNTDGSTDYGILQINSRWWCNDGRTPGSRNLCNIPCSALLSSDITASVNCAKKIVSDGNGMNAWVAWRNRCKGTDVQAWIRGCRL", "protocol": "(§1) For this specificity profiling test the different proteins and controls were coated on two 384-well MSD plates with a concentration of 1 μg/ml at 4° C. over night. Plates were blocked with BSA and washed three times with PBS with 0.05% (v/v) Tween 20. Antibody samples were diluted to 100 nM and 10 nM in assay buffer (PBS with 0.5% (w/v) BSA, 0.05% (v/v) Tween 20). […] Samples and controls were incubated for three hours at room temperature. The plates were washed three times and 30 μl detection antibody (ECL-labeled anti-human Fab) were added per well and incubated for 1 h. After washing, MSD Read Buffer T with surfactant was added and electrochemiluminescence signals were detected using a Sector Imager 6000 (Meso Scale Discovery, Gaithersburg, Md., USA)."}, "[2]": {"target": "Transferrin (bovine) (bovine, UniProt Q29443 20-704)", "sequence (Q29443 20-704 limits assumed)": "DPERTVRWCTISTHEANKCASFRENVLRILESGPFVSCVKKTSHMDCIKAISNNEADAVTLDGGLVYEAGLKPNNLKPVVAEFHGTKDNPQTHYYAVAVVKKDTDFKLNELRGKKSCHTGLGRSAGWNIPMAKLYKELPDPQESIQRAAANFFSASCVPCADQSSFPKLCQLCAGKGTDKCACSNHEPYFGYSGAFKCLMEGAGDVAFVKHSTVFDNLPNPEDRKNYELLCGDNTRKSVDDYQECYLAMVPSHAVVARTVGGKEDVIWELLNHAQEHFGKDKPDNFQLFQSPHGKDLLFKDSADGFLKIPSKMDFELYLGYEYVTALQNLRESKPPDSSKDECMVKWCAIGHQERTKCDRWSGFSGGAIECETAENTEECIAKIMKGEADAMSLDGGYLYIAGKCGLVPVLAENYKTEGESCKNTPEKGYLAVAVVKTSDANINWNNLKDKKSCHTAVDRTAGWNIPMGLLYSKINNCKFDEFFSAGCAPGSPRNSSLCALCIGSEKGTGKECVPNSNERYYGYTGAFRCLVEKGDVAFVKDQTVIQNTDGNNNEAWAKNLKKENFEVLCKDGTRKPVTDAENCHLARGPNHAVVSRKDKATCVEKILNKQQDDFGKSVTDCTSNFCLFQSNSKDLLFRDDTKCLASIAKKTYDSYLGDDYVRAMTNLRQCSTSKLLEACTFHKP", "protocol": "as §1"}, "[3]": {"target": "T1, Fibrinogen (bovine) (bovine, UniProt P02672 20-615; P02676 1-468; P12799 25-444)", "T1 sequence (looked up) 1": "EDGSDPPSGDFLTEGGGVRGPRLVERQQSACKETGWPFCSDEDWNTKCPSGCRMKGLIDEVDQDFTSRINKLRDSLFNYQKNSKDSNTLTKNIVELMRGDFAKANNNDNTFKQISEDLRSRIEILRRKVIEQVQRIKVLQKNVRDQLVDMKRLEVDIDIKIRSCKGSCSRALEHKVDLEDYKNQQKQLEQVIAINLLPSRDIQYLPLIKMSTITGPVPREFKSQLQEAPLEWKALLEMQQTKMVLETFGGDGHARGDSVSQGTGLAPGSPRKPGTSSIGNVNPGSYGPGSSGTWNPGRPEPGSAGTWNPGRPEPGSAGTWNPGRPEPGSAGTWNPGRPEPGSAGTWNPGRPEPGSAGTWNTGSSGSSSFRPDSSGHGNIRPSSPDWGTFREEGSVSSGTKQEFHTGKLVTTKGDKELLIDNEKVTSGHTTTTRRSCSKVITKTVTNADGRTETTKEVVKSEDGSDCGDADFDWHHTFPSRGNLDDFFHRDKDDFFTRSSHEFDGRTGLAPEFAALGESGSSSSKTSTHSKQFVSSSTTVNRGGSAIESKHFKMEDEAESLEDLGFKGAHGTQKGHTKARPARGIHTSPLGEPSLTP", "T1 sequence (looked up) 2": "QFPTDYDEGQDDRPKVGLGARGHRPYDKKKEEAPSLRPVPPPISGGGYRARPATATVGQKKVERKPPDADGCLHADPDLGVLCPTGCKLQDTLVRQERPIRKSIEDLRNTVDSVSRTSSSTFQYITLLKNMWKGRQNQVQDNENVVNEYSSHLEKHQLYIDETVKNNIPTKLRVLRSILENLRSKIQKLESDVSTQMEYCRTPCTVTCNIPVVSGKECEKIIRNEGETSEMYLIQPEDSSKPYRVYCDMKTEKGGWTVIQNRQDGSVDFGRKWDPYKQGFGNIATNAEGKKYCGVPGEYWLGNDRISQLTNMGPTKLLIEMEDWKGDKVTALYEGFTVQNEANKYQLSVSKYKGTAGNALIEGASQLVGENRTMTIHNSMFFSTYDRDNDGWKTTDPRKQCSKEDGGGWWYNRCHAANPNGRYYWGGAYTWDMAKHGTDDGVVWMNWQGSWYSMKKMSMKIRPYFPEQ", "T1 sequence (looked up) 3": "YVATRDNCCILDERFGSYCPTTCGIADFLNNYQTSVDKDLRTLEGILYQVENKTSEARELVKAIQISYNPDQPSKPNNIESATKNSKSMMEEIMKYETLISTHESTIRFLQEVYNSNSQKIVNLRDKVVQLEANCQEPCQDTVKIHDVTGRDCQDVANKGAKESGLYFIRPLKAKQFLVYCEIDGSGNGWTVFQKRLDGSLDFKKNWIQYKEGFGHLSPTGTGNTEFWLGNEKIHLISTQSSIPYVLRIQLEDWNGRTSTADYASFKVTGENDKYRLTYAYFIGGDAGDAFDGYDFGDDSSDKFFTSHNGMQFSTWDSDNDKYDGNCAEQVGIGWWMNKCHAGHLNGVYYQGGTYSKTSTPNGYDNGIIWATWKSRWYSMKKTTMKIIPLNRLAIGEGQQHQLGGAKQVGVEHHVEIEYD", "protocol": "as §1"}, "[4]": {"target": "T2, Trypsinogen (cow) (cow, UniProt P00760 18-246)", "T2 sequence (looked up)": "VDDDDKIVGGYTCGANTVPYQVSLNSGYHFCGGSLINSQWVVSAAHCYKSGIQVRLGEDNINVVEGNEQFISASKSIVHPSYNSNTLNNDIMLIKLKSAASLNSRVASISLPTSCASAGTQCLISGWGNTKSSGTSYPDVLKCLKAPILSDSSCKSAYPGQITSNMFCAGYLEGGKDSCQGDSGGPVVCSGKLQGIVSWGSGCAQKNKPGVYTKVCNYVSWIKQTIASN", "protocol": "as §1"}, "[5]": {"target": "Pepsinogen (pork) (pork, UniProt P00791 16-385)", "sequence (P00791 16-385)": "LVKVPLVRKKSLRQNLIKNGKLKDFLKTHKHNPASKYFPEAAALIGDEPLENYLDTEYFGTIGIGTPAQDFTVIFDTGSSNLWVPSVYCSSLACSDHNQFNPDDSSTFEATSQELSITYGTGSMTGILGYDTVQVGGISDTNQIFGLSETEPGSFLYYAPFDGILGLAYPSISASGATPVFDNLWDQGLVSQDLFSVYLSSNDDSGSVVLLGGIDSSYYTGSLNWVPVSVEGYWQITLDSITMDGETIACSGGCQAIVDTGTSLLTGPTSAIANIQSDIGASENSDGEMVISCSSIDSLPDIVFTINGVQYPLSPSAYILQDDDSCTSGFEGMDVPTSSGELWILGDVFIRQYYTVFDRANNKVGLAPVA", "protocol": "as §1"}},
  "data": [
    {"binder": "Camille (format not stated) (antibody, V domains shown, also called Antibody Camille) VH: QVQLQQSGPGLVKPSQTLSLTCAISGESVSTSSAAWNWIRQSPSRGLEWLGRTYYRSKWKHEYAVSVKSRITINPDTSKNQFSLQLNSVTPEDTAVYYCARDRYYYSAFDYWGQGTLVTVSS VL: QSALTQPASVSGSPGQSITISCTGTSSDVGGYNSVSWYQQHPGKAPKLLIYAVSNRPSGVSNRFSGSKSGNTASLTISGLQAEDEADYYCASYDERFTRVFGGGTKLTVLG", "values": [
      {"measurement": "binding result", "setting": "[1]", "result": "no binding (tested: 100 nM and 10 nM antibody)"},
      {"measurement": "binding result", "setting": "[2]", "result": "no binding (tested: 100 nM and 10 nM antibody)"},
      {"measurement": "binding result", "setting": "[3]", "result": "no binding (tested: 100 nM and 10 nM antibody)"},
      {"measurement": "binding result", "setting": "[4]", "result": "no binding (tested: 100 nM and 10 nM antibody)"},
      {"measurement": "binding result", "setting": "[5]", "result": "no binding (tested: 100 nM and 10 nM antibody)"}
    ]}
  ]
}
